The supplement of paper PMC11246515
± gives the standard deviation of the averaged measurements.

Assay: total protein half-life in vivo (active degradation + dilution); higher = more stable protein
[1] = E. coli NCM3722 delta-clpP delta-lon delta-hslV, growth: N-lim chemostat, doubling time 6 h
[2] = wild type E. coli NCM3722, growth: P-lim chemostat, doubling time 6 h
[3] = wild type E. coli NCM3722, growth: P-lim chemostat, doubling time 12 h
[4] = E. coli NCM3722 delta-clpP, growth: N-lim chemostat, doubling time 6 h
[5] = E. coli NCM3722 delta-hslV, growth: N-lim chemostat, doubling time 6 h
[6] = E. coli NCM3722 delta-lon, growth: N-lim chemostat, doubling time 6 h
[7] = E. coli NCM3722 delta-smpB, growth: N-lim chemostat, doubling time 6 h
[8] = wild type E. coli NCM3722, growth: C-lim chemostat, doubling time 3 h
[9] = wild type E. coli NCM3722, growth: C-lim chemostat, doubling time 6 h
[10] = wild type E. coli NCM3722, growth: C-lim chemostat, doubling time 12 h
[11] = wild type E. coli NCM3722, growth: N-lim chemostat, doubling time 6 h
[12] = wild type E. coli NCM3722, growth: N-lim chemostat, doubling time 12 h

Row | Sequence | total protein half-life in vivo [1] [h] | total protein half-life in vivo [2] [h] | total protein half-life in vivo [3] [h] | total protein half-life in vivo [4] [h] | total protein half-life in vivo [5] [h] | total protein half-life in vivo [6] [h] | total protein half-life in vivo [7] [h] | total protein half-life in vivo [8] [h] | total protein half-life in vivo [9] [h] | total protein half-life in vivo [10] [h] | total protein half-life in vivo [11] [h] | total protein half-life in vivo [12] [h]
1 | MNNHFGKGLMAGLKATHADSAVNVTKFCADYKRGFVLGYSHRMYEKTGDRQLSAWEAGILTRRYGLDKEMVMDFFRENNSCSTLRFFMAGYRLEN | 4.99 ± 0.16 | – | – | – | – | – | – | – | – | – | – | –
2 | MINVQNVSKTFILHQQNGVRLPVLNRASLTVNAGECVVLHGHSGSGKSTLLRSLYANYLPDEGQIQIKHGDEWVDLVTAPARKVVEIRKTTVGWVSQFLRVIPRISALEVVMQPLLDTGVPREACAAKAARLLTRLNVPERLWHLAPSTFSGGEQQRVNIARGFIVDYPILLLDEPTASLDAKNSAAVVELIREAKTRGAAIVGIFHDEAVRNDVADRLHPMGASS | – | 0.0732 | 0.788 ± 0.69 | – | – | – | – | – | – | – | – | –
3 | MSNKPFHYQAPFPLKKDDTEYYLLTSEHVSVSEFEGQEILKVAPEALTLLARQAFHDASFMLRPAHQQQVADILRDPEASENDKYVALQFLRNSDIAAKGVLPTCQDTGTAIIVGKKGQRVWTGGGDEAALARGVYNTYIEDNLRYSQNAPLDMYKEVNTGTNLPAQIDLYAVDGDEYKFLCIAKGGGSANKTYLYQETKALLTPGKLKNYLVEKMRTLGTAACPPYHIAFVIGGTSAETNLKTVKLASAKYYDELPTEGNEHGQAFRDVELEKELLIEAQNLGLGAQFGGKYFAHDIRVIRLPRHGASCPVGMGVSCSADRNIKAKINRQGIWIEKLEHNPGKYIPEELRKAGEGEAVRVDLNRPMKEILAQLSQYPVSTRLSLNGTIIVGRDIAHAKLKERMDNGEGLPQYIKDHPIYYAGPAKTPEGYASGSLGPTTAGRMDSYVDQLQAQGGSMIMLAKGNRSQQVTDACKKHGGFYLGSIGGPAAVLAQGSIKSLECVEYPELGMEAIWKIEVEDFPAFILVDDKGNDFFQQIQLTQCTRCVK [P0AC33] | 4.02 ± 1.1 | 5.02 ± 0.12 | 8.932 ± 0.051 | 2.82 ± 0.17 | 2.53 ± 0.47 | 2.86 ± 0.043 | 2.36 ± 0.071 | 3.13 ± 0.2 | 4.39 ± 0.14 | 7.67 ± 1.4 | 2.51 ± 0.22 | 3.37 ± 0.11
4 | MTNLPKFSTALLHPRYWLTWLGIGVLWLVVQLPYPVIYRLGCGLGKLALRFMKRRAKIVHRNLELCFPEMSEQERRKMVVKNFESVGMGLMETGMAWFWPDRRIARWTEVIGMEHIRDVQAQKRGILLVGIHFLTLELGARQFGMQEPGIGVYRPNDNPLIDWLQTWGRLRSNKSMLDRKDLKGMIKALKKGEVVWYAPDHDYGPRSSVFVPLFAVEQAATTTGTWMLARMSGACLVPFVPRRKPDGKGYQLIMLPPECSPPLDDAETTAAWMNKVVEKCIMMAPEQYMWLHRRFKTRPEGVPSRY [P0ACV0] | 6.85 | – | – | 5.84 | 6.63 | – | 5.81 | – | 7.93 | – | – | –
5 | MRIHILGICGTFMGGLAMLARQLGHEVTGSDANVYPPMSTLLEKQGIELIQGYDASQLEPQPDLVIIGNAMTRGNPCVEAVLEKNIPYMSGPQWLHDFVLRDRWVLAVAGTHGKTTTAGMATWILEQCGYKPGFVIGGVPGNFEVSAHLGESDFFVIEADEYDCAFFDKRSKFVHYCPRTLILNNLEFDHADIFDDLKAIQKQFHHLVRIVPGQGRIIWPENDINLKQTMAMGCWSEQELVGEQGHWQAKKLTTDASEWEVLLDGEKVGEVKWSLVGEHNMHNGLMAIAAARHVGVAPADAANALGSFINARRRLELRGEANGVTVYDDFAHHPTAILATLAALRGKVGGTARIIAVLEPRSNTMKMGICKDDLAPSLGRADEVFLLQPAHIPWQVAEVAEACVQPAHWSGDVDTLADMVVKTAQPGDHILVMSNGGFGGIHQKLLDGLAKKAEAAQ | 5.233 ± 0.034 | 5.99 ± 0.1 | 12.4 ± 0.71 | – | 5.14 ± 0.089 | 6.73 ± 0.28 | 5.26 ± 0.38 | 2.84 ± 0.21 | – | 12.236 ± 0.0033 | 5.58 ± 0.38 | 9.82 ± 1.3
6 | MNRFIMANSQQCLGCHACEIACVMAHNDEQHVLSQHHFHPRITVIKHQQQRSAVTCHHCEDAPCARSCPNGAISHVDDSIQVNQQKCIGCKSCVVACPFGTMQIVLTPVAAGKVKATAHKCDLCAGRENGPACVENCPADALQLVTDVALSGMAKSRRLRTARQEHQPWHASTAAQEMPVMSKVEQMQATPARGEPDKLAIEARKTGFDEIYLPFRADQAQREASRCLKCGEHSVCEWTCPLHNHIPQWIELVKAGNIDAAVELSHQTNTLPEITGRVCPQDRLCEGACTIRDEHGAVTIGNIERYISDQALAKGWRPDLSHVTKVDKRVAIIGAGPAGLACADVLTRNGVGVTVYDRHPEIGGLLTFGIPSFKLDKSLLARRREIFSAMGIHFELNCEVGKDVSLDSLLEQYDAVFVGVGTYRSMKAGLPNEDAPGVYDALPFLIANTKQVMGLEELPEEPFINTAGLNVVVLGGGDTAMDCVRTALRHGASNVTCAYRRDEANMPGSKKEVKNAREEGANFEFNVQPVALELNEQGHVCGIRFLRTRLGEPDAQGRRRPVPVEGSEFVMPADAVIMAFGFNPHGMPWLESHGVTVDKWGRIIADVESQYRYQTTNPKIFAGGDAVRGADLVVTAMAEGRHAAQGIIDWLGVKSVKSH | 5.28 | – | – | – | – | – | – | – | – | 1.34 | – | –
